Reference: patent publication US20200291123A1 (PB IMMUNE THERAPEUTICS, published 2020)

Biological target: T1, His-tagged CD40 antigen (human, UniProt P25942 21-193, limits assumed)
T1 construct: Captured on an anti-His antibody on a CM5 chip; not shown: His tag
Assay: SPR, Biacore T200, CM5 chip, His-tagged CD40 captured on anti-His antibody
Description: That is, the anti-His antibody was immobilized on the surface of the CM5 sensor chip by an amine coupling method. His-tagged CD40 antigen was captured by reacting the His-tagged CD40 antigen with the antibody and then the captured antigen was reacted with sensor chip coated with an anti-his antibody. The results were read using biocore T200 (GE Healthcare).

T1 sequence (P25942 21-193 limits assumed): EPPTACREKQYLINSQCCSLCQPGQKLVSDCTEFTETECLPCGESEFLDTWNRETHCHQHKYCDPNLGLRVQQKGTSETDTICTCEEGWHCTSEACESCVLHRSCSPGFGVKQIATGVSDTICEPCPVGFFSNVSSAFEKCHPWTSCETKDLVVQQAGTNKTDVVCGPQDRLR

B1: anti-CD40 antibody RM8G-1 (antibody, V domains shown)
VH: LVQLKESGPGLVAPSQSLSITCTVSGFSLTDYGVGWIRQPPGKDLEWLGVMWGGGRTYYNAPLKSRLSISKDNSKSQVFLKMNSLQTDDTAMYYCVKTGQDYAVDYWGQGTSVTVSS
VL: DIVLTQSPASLAVSLGQRATISCRASKSVSTSAYSYMHWYQQKPGQPPKLLIYLASNLESGVPARFSGSGSGTDFTLNIHPVEEEDAATYYCQHSWDLPYTFGGGTKLEIK
notes: Mouse monoclonal antibody from hybridoma RM8G1 (KCLRF-BP-00336); also called RM RM8G-1; anti-CD40 RM8G-1
Kd: 0.494 nM | koff: 0.000234 s⁻¹ | kon: 474000 M⁻¹ s⁻¹
